Results reported in patent US20260250328A1 (published 2026).

Legend:
Assay in all cases: SPR
[1] = biological target: P2-4G
[2] = biological target: P2-3E-RBD (mammalian cell expression system)
[3] = biological target: P2-5C-RBD (mammalian cell expression system)
[4] = biological target: P2-2C-RBD (mammalian cell expression system)
[5] = biological target: P1-5B-RBD (mammalian cell expression system)
[6] = biological target: P2-3A-RBD (mammalian cell expression system)
[7] = biological target: P2-2C-RBD (insect cell expression system)
[8] = biological target: P1-1G-RBD (insect cell expression system)
[9] = biological target: P1-5B-RBD (insect cell expression system)
[10] = biological target: P2-3E-RBD (insect cell expression system)
[11] = biological target: P2-3A-RBD (insect cell expression system)
[12] = biological target: P2-3D-RBD (insect cell expression system)

B1: HEV-p239 (other)
chain: IALTLFNLADTLLGGLPTELISSAGGQLFYSRPVVSANGEPTVKLYTSVENAQQDKGIAIPHDIDLGESRVVIQDYDNQHEQDRPTPSPAPSRPFSVLRANDVLWLSLTAAEYDQSTYGSSTGPVYVSDSVTLVNVATGAQAVARSLDWTKVTLDGRPLSTIQQYSKTFFVLPLRGKLSFWEAGTTKAGYPYNYNTTASDQLLVENAAGHRVAISTYTTSLGAGPVSISAVAVLAPHSV
Work on B1 yielded a Kd [1] of 3.4 nM, a Kd [2] of 1.24 nM and a Kd [3] of 0.874 nM. The Kd [4] was 1.02 nM, the Kd [5] was 0.131 nM and the Kd [6] was 0.0364 nM. The Kd [7] was 3.71 nM, the Kd [8] was 3.57 nM and the Kd [9] was 1.13 nM. The Kd [10] was 1.41 nM, the Kd [11] was 0.655 nM and the Kd [12] was 1.8 nM.
